Measurements as given in patent CN114805559A (UNIV ZHEJIANG, dated 2022).

Target: 新型冠状病毒SARS-CoV-2受体结合域RBD重组蛋白 (pET-28a(+)/RBD, E. coli Rosetta) (SARS-CoV-2, UniProt P0DTC2 319-541)
Assay: BLI (Fortebio), KD = Kdis/Kon

B1: 全人源抗新冠病毒受体结合域单链抗体No4 (purified recombinant scFv from pET-30a(+)/anti-RBD No4 in E. coli Rosetta) (scFv, not shown: small tags and cut ends)
scFv: RSSCRNPGGALVQPGGSLRLSCETSGFTFSRYWMNWFRQAPGKGLVWVSHISNNGRVTGYADSVKGRFTISRDNAKNILYLQMSGLRAEDTSLYYCARVHNAFCNSVSCVDAFDVWGQGTTVTVSSGGGGSGGGGSGGGGSDIVMTQTPSSLSASVGDRVTITCRASQRINSLLNWYQHKPGKPPKLLIYGASTLQSGVPSRFSGSESGADFTLTISSLQPEDVGTYYCQKYNSAPHTFGQGTRLEIK
notes: also called 抗RBD单链抗体No4; 抗RBD单链重组抗体No4
In the case of B1, the Kd is reported as 1.61 nM.
